The nanobody polyreactivity screen of Harvey et al. (2022)

Assay: yeast display, Sf9 membrane polyspecificity reagent, FACS + sequencing; frameworks hold sequencing errors
How it was run: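 Nanobodies came from a synthetic yeast display library in Saccharomyces cerevisiae BJ5465, induced with galactose for 36–48 hours and stained for 1 hour at 4 °C with 10% biotinylated, detergent-solubilized Sf9 membrane reagent. Cells were enriched on streptavidin microbeads and then FACS-sorted, with low and high (top ~1%) gates set on anti-HA fluorescence for expression and streptavidin fluorescence for reagent binding. Each polyreactivity label reflects the gate a clone came from. Genes were amplified by colony PCR, sequenced by MiSeq 2 × 250 and filtered by CDR length.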

Sequence	polyreactivity (PSR sort gate)
QVQLVESGGCLVQAGGSLRLSCAASGSTLWGYAMGWYRQAPGKERELVAAITSSGGITYYADSVKGRFTISRDNAKNTVYFQMNSLKPEDTAVYFCAVDYYVVGWTYLYYYWGQGTQVTVSS	low polyreactivity
QVQLVESGGCLVQAGGSLRLSCAASGYTFLYNAMGWYRQAPGKERELVATNTRGGSTNYADSVKGRFTISRDNAKNTVYLQMYSLKPEDTAVYYCNKEAAPLGFVPSYYGRDYWGHGTQVTVSS	low polyreactivity
QVQLVESGGCLVQAGGSLRLSCAASRITFRWYAMGWYRQAPGKDRELVAAISRSGASTYYADSVKGRFTISRDNAKNTVYLQMNSLKPEDTAVYYCAKEKTTYYWATYDYWGQGTQVTVSS	high polyreactivity
QVQLVESGGCLVQAGGSLRLSCAASVRIFQIYAMGWYRQAPGKERELVATISSGTRTYYADSVKGRFTMSRDNAKNTVYLQMNSLKPEDTAVYYCAKTYATRHAYWAGTRYEDDYWGQGTQVTVSS	high polyreactivity
QVQLVESGGCLVQAGGSLRLSCAPSGLTMHYYAMGWYRQAPATERELVAAITYSCGSTYYADSVKGRFTISLDNAKNTVYLQMNILKAEDTAVYYCAADTFPTTSEVDYWGQGTQVTVSS	low polyreactivity
QVQLVESGGCLVQAGGSLRLSCASSGFTFDIYAMGWYRQAPGKERELVATISFTGDTTSYADSGKGRFTISRDNAKNTVYLQMNSLKPEDTAVYYCAADGSYPLSVGRENLHYAEFDYWGKGTQVTVSS	low polyreactivity
QVQLVESGGCLVQAGGSLRLSCASSGSTFTHYAMGWYIQSPGKERELVAAISSGGSTYYADSVKGRFTISRDNAKNTVYLQMNSLKPEDTAVYYCAADYYLHDWWYPHDYWGQGTQVTVSS	low polyreactivity
QVQLVESGGCLVQAGGSLRLSCDASGIIFRGNAMGWYRHAPGTERELVAAISSAGSTNYSDSVKGRFTISRDNAKNTVYLQMNSLKPEDTAVYYCAKGSIKYHVTLRGRGYYWGQGTQVTVSS	low polyreactivity
QVQLVESGGCLVQAGGSLRLSCDASGSTFPYYAMGWYRQAPGKERELVAAITLSGSSTYYTDSVKGRFTISRDNAKNTVYLQMNSLKPEDTAVYYCATRRVQWGYRYSYWRQGTQVTVSS	high polyreactivity
QVQLVESGGCLVQAGGSLRLSCSASGLTFRYYAMGWYRQAPGKESELVAAITRRGSTYYADSVKGRFTISRDIAKNTVYLQMNSLKPEDSAVYYCATVTGFHSSPLRDLDYWGQGTLVTVSS	high polyreactivity
QVQLVESGGCLVQAGGSLRLSSAASGFTFRRYTMGWYRQAPGKVRELVAAISRSGGSTFYADSVKGRFTISRDNAKNTVYLQLNSLKPEDSAVYYCNAGRTYTALNGDYWGHGTQVTVSS	high polyreactivity
QVQLVESGGCLVQAGGSLRLSSAASGRTFDHYAMGWYRQAPGKERELDAAITSGGSTYYADSVKGRFTISRDNAKNTVYLQMNSLKPEDTAVYYCNKDSSFWGSYIAQVNERDYWGQGTQVTVSS	low polyreactivity
QVQLVESGGCLVQAGGSLRLTCAASGFTFVYNAMGWYRQDPGKERELVARISVSGGSTYYADSVKGRFTISRDNAKNTVYLQMNSLKPEDTSVYYCAAELSAPQPDYQLKVDYYYWGQGTQVTVSS	low polyreactivity
QVQLVESGGCLVQAGGSLSLSCAASGFIFDHNAMGWYRQAPGKERELVAAITWRGDSTYYADSVKGRFTISRDTAKNSVYVQMNSLKPEDTAVYYCNADAILVYYGKLDYWGQGTQVTVSS	low polyreactivity
QVQLVESGGCLVQAGGSRRLSWAASGRIFDTYTMGWYRQAPGKERELVAAITSGGSTYYADSVKGRFTISRDNAMNTVYLQMNSLKPEDTAVYYCAARYRSIIRYYYWGQGTQVTVSS	high polyreactivity
QVQLVESGGCLVQARGSLRLSCASSGFIFQAYAIGWYRHRPGKERELVASISYSGSRTYYADSVKGRFTISRDNAKNTVYLQMNSLKPADTAVYYCAAGPRYWYPWFGRDYEYWGQGTQVTVSS	high polyreactivity
QVQLVESGGCLVQSGGSLRLSCAASGSTFRGYAMGWYRQAPGKEREFVAAISKGGASTYYADSVKGRFTISRDNAMNTVYLQMNSLKPEDTAVYYCAKGAYRRAYGTYYYWGQGTQVTVSS	high polyreactivity
QVQLVESGGDLVQAGGSLRLSCAASGRSYKYNDMGWYRQAPRKERELVADISSGVSTYYADSVKGRFTISRDNAKNTVYLQMNSLKPEDTAVYYFNAYSDGDEDYWGQGTQVTVSS	low polyreactivity
QVQLVESGGFLVQAAGSLRLSCDASGFTFSSYSMGWYRQAPGKERELVAAISTRGGSTYYADSVKGRFTISLDNAMNSVYLLLNSLKPEDTADYYCATGGRGGRRYDYWGQGTQVTVSS	low polyreactivity
QVQLVESGGGFVHAGGSLRLSCAASGITSRFYAIGWYRQAPAKERELVAAITSGGGSTRYSDSVKGRFTISRDNAKNTVYLQMNSLKPEDTAVYYCNARVLYYVNGYGGCKRYGYWGQGTQVNVSS	high polyreactivity
QVQLVESGGGFVKAGGSLRLSCASSGSIFYSYAMGWYRQAPGKEREFVAAISWSASRTYYADSVKGRFTISRDNAKNTVYLQMNSLKPEDTAVYDCAARTYYNSGYYYWGQGTQVTVSS	high polyreactivity
QVQLVESGGGFVQAGCSLRLSCDASGSIFAPNVMGCYRQAPGKERELDAAINFIGGRTYYADSVKGRFTISRDNAKNTVYLQMNSLKTEDTSVYYCNVGSYYRSYSGDFEYWGQGTQVTVSS	high polyreactivity

Sequence	polyreactivity (PSR sort gate)
QVQLVESGGGFVQAGGRLRLSCAASGRTFKYYAMGWYRPAPGKDRELVAAISRGGSTNYADSVKGRFTISRDNAKNTVYLQLTSLNPEDTAVYYCAADQVTDYWWRGYEYWGQGTQVTVSS	low polyreactivity
QVQLVESGGGFVQAGGSLRLSCAASGCTFIKYAMGWYTQAPGKEREFVAAITRSGTSTYYADSVKGRFTISRDNAKNTVYLQMNRLKPEDTAVYFCSARYVYNSDRVSERDYWGQGTQVTVSS	high polyreactivity
QVQLVESGGGFVQAGGSLRLSCAASGCTVRWNAKGWYRQATGKDRELVAAITYSGGSTYYADSVKGRLTISRDIANNTVYLQMNSLNPEDTAVYYCATEGRGYFCYYTDDYWGQGTQVTVSS	high polyreactivity
QVQLVESGGGFVQAGGSLRLSCAASGFIFGYYAMGWYRQAPGKERELVAAITRSGSRTYYADSVKGRFTISRDNAKNTVYLQMNSLKPEDTAVYYFAKRRYWYYRSRDWFVSGVYWGQGTQVTVSS	low polyreactivity
QVQLVESGGGFVQAGGSLRLSCAASGFSFGYSAMGWYRQAPGKERELVAAINNADSTYYADSVKGRFPISRDNAKNTVYLQMNSLKPEDTAVYYCAAVVDYGWWLAYDYWGQGTQVTVSS	high polyreactivity
QVQLVESGGGFVQAGGSLRLSCAASGINVSHYTMGWYRQAPGKERELVAGISRSGGSTYYADSVKGRFTISRDNAKNTVYLQMNSLKPDDTAVYYCAADGYGFVSPRGYNYWGQGTQVTVSS	high polyreactivity
QVQLVESGGGFVQAGGSLRLSCAASGRIFGQYAMGWYRQAPGKERELVAAISQRGGSTYYADSVKGRFTISRDNAKNTVYLQMNSLKPEDTAVYYCAAPPRLIKSYGYNYWGQGTQVTVSS	high polyreactivity
QVQLVESGGGFVQAGGSLRLSCAASGRIFGVYALGWYRPAPGKERELVAAISYSGGSTYYADSVKGRFTISRVNAKNTVYLQMNSLKPEDTAVYYCAAKIFPKGDYWGQGTQVTVSS	high polyreactivity
QVQLVESGGGFVQAGGSLRLSCAASGRTFNGYAMGWYTQAPGKERELVAGISWRGTSTYYSDSVKGRFTISRDNAKNTVYLQLNSLKPEDTAVYYCAASRYLLYDYWGQGTQVTVSS	high polyreactivity
QVQLVESGGGFVQAGGSLRLSCAASGSIFRGYAMGWYRQAPGKERELVAAIRYSGARTYYADSVKGRFTISRDNAKNTVYLQMNSLKPEDTAVYYCNARYIRSYDYWGQGTQVTVSS	high polyreactivity
QVQLVESGGGFVQAGGSLRLSCAASGSTFFTNAKGWYRQAPGKERELVAASRWRGGTYYADSVKGRFTISRDNAKKTVYLQMNSLKPEDTPVYDCATSVKTSFDYWRQGTQVTVSS	low polyreactivity
QVQLVESGGGFVQAGGSLSLSCAASGRIFGINAMLWYRQAPGKVRELVAAISSSGANTYYADSVKGRFTISRDNAKNTVYLQMNRLKPEDTAVYYCATKASSYQSPYYYWGQGTQVTVSS	high polyreactivity
QVQLVESGGGFVQAGVSLRLSCAASGSIYYNAMGWYIQAPGKERELVAGITSSGGSTYYADSVKGRFTISRDNAKNTVYLQMISLKPEDTAVYFCAADFVYLCTLFGAYDYCGQGTQVTVSS	low polyreactivity
QVQLVESGGGIDQAGGSLRLICAASGRTFTQYAMRWSRQAHGKERELVAAITRSGGSTYYADSVKGRFTISRDNAKNTVYVLMNILKPEDTAVYYCAKRPAYRSTQTFDFWGQGTQVTVSS	high polyreactivity
QVQLVESGGGIFHAGGSLRLRCAASGSIYRGYAMVWYRQAPGKERELVASIRWRGGRTNYADSVKGRFTISRDNAKNTVYLQMNSLKPEDTAVYYCNADQQTIRSGKNDYWGQGTQVTVSS	low polyreactivity
QVQLVESGGGIFQAGGSLRLSCDASGFTIGAYAMGWYRQAPGKERELVAAITLRTGGSTYYADSLKGRFTISRDNAKNTVYLQMNSLKPEDTAVYYCATYGSYWRKSRAPGYYYGGQGTQVTVSS	high polyreactivity
QVQLVESGGGIVHAGCSLRLSSTASRFIFWWYAMAGYRQAHGKERELVATITASVGSTNYADSVKGRFTISRDNAKNTVYLQMNSLNPEDTAVYYCATDIIGAIRDWDHTRMDYWGQGTQVTVSS	low polyreactivity
QVQLVESGGGIVHAGGSLRLSCAASGFIFDTNAMGWYRQAPGKEREMVAAITNDDSTNYADSVKGRFTISRDNAKTTVYLQMNSLKPEDTSVYYCAAYYIAQVVWPTTFHQQEYDYWGQGSQVTVSS	low polyreactivity
QVQLVESGGGIVKAAGSLRLSCAASGSTFKKYAMGWDRQAPRKERELVASISSGGGTYYADSVKGRFTISRDNAKNTVYVQMNSLKPEDTAVYYCAARYHYAKSPYRYYYWGQGTQVTVSS	high polyreactivity
QVQLVESGGGIVKAGGSLGISCAASGRIFDYYDMLWYRQAPGKERELVAAITQSGGSTNYADSVKGRFTISRDNAKNTVYLQMNSLKPEDTAVYYCAGVGYYTKRRFGYWGQGTQVTVSS	high polyreactivity
QVQLVESGGGIVQAAGSLRLSCAASGFTIYYYAMVWYRQAPGKERELVASITSGGSTYYADSVKGRFTISRDNAKNTVYLQMNSLKPEDTAVYYCAITRFHSKEGVYWGQGTQVTVSS	low polyreactivity
